A short description of series [1]: Stability under continuous cold-chain maintenance. The class given is physicochemical. Particulars: 4° C.
Series [2] in a line: Emulsion particle size and polydispersity by dynamic light scattering (DLS). It counts as physicochemical. How it is done: Emulsion particle size, polydispersity (PdI), and zeta potential were evaluated using dynamic light scattering (DLS) on a Malvern (Worcestershire, UK) Nano-ZS. Measurements were performed generally as previously described (Fox et al., 2011, Pharmaceutical Development and Technology, 16(5):511-519). Briefly, all DLS size measurements were performed in 10^−2 dilutions into 20 nm filtered water (described above) and evaluated in triplicate on single aliquots. For zeta-potential measurements, the same aliquot was evaluated using triplicate measurements and an automatic software determination of the measurement duration between 20 and 40 runs.
Particle size, polydispersity, and zeta potential measurements were made as described previously (Fox et al., 2008, Colloids and Surfaces B: Biointerfaces, 65:98-105) using a Malvern (Worcestershire, UK) Nano-ZS after 100 times dilution into ultrapure water filtered through a 20 nm Whatman (Maidstone, Kent, UK) Anotop plus filter. Nanoparticle tracking analysis was performed with a NanoSight LM10 (Amesbury, UK) with a 405 nm laser and a Hamamatsu Orca Flash 2.8 CMOS camera (Hamamatsu, JP). Samples were diluted 1:105 in 20-nm filtered ultrapure water in three steps. Each sample was diluted and analyzed four times, independently, to account for dilution error. Ninety seconds of video were recorded for each sample with optimized shutter and gain settings. The camera histogram gating was adjusted to maximize sensitivity. Data analysis was performed using NanoSight NTA 2.3 software (Wiltshire, UK) in standard mode.

B1: ID93: recombinant tandem fusion protein antigen of Mtb Rv3619, Rv1813, Rv3620 and Rv2608 (SEQ ID NO: 1 or 2) (protein)
chain: MGSSHHHHHHSSGLVPRGSHMTINYQFGDVDAHGAMIRAQAGSLEAEHQAIISDVLTASDFWGGAGSAACQGFITQLGRNFQVIYEQANAHGQKVQAAGNNMAQTDSAVGSSWAGTHLANGSMSEVMMSEIAGLPIPPIIHYGAIAYAPSGASGKAWHQRTPARAEQVALEKCGDKTCKVVSRFTRCGAVAYNGSKYQGGTGLTRRAAEDDAVNRLEGGRIVNWACNELMTSRFMTDPHAMRDMAGRFEVHAQTVEDEARRMWASAQNISGAGWSGMAEATSLDTMTQMNQAFRNIVNMLHGVRDGLVRDANNYEQQEQASQQILSSVDINFAVLPPEVNSARIFAGAGLGPMLAAASAWDGLAEELHAAAGSFASVTTGLAGDAWHGPASLAMTRAASPYVGWLNTAAGQAAQAAGQARLAASAFEATLAATVSPAMVAANRTRLASLVAANLLGQNAPAIAAAEAEYEQIWAQDVAAMFGYHSAASAVATQLAPIQEGLQQQLQNVLAQLASGNLGSGNVGVGNIGNDNIGNANIGFGNRGDANIGIGNIGDRNLGIGNTGNWNIGIGITGNGQIGFGKPANPDVLVVGNGGPGVTALVMGGTDSLLPLPNIPLLEYAARFITPVHPGYTATFLETPSQFFPFTGLNSLTYDVSVAQGVTNLHTAIMAQLAAGNEVVVFGTSQSATIATFEMRYLQSLPAHLRPGLDELSFTLTGNPNRPDGGILTRFGFSIPQLGFTLSGATPADAYPTVDYAFQYDGVNDFPKYPLNVFATANAIAGILFLHSGLIALPPDLASGVVQPVSSPDVLTTYILLPSQDLPLLVPLRAIPLLGNPLADLIQPDLRVLVELGYDRTAHQDVPSPFGLFPDVDWAEVAADLQQGAVQGVNDALSGLGLPPPWQPALPRLFST
As for B1, the “stability under continuous cold-chain maintenance” value in series [1] is recorded as “stable for more than a year”. The “effect of heat stress on particle size” value in series [2] (50° C. for 30 days) is recorded as “reduced the average particle size observed; however, this was not statistically significant”. Moreover, the “effect of heat stress on polydispersity” value in series [2] (50° C. for 30 days, liquid or lyophilized formats) is “did not affect the polydispersity”. Also, in series [2] (unstressed), the “particle size (Z-average diameter)” value is given as “approximately 70 nm”.

The values are drawn from patent US12491161B2, “Single vial vaccine formulations” (priority 2013, dated 2025).
